The source of these data is patent publication US20210269531A1 (TSINGHUA UNIVERSITY, published 2021).

For test [1], the target named is human TrkB on CHO cells (hTrkB-CHO cells) (human) (UniProt Q16620). The test can be described thus: cell-based or functional assay.
Test [2] addresses T1, human TrkB (recombinant protein coated in ELISA / immobilised in Biacore) (human, UniProt Q16620 30-430, limits assumed).
T1 construct: also called target protein; antigen
Nature of the test: Biacore T200 SPR, target protein on CM5 chip, antibody in 7 dilutions as fluid phase. As for the experimental part: Wash CM5 chip in PBS with sonication. Replace the buffer of candidate antibodies and the target protein with the same PBS. The target protein was diluted to 1 μg/μL as the solid phase and the candidate antibodies were serial diluted to 7 dilutions as the fluid phase. After obtaining the signal, Biacore Evaluation Software was used to create fitting curves. ch2<Rmax/10 indicates good confidence level.
Biacore was used to analyze the affinity of antigen-antibody interaction.

For test [3], the target named is T2, human TrkB on CHO cells (hTrkB-CHO cells) (human, UniProt Q16620 32-822). Nature of the test: cell-based or functional assay.
T2 sequence (Q16620 32-822): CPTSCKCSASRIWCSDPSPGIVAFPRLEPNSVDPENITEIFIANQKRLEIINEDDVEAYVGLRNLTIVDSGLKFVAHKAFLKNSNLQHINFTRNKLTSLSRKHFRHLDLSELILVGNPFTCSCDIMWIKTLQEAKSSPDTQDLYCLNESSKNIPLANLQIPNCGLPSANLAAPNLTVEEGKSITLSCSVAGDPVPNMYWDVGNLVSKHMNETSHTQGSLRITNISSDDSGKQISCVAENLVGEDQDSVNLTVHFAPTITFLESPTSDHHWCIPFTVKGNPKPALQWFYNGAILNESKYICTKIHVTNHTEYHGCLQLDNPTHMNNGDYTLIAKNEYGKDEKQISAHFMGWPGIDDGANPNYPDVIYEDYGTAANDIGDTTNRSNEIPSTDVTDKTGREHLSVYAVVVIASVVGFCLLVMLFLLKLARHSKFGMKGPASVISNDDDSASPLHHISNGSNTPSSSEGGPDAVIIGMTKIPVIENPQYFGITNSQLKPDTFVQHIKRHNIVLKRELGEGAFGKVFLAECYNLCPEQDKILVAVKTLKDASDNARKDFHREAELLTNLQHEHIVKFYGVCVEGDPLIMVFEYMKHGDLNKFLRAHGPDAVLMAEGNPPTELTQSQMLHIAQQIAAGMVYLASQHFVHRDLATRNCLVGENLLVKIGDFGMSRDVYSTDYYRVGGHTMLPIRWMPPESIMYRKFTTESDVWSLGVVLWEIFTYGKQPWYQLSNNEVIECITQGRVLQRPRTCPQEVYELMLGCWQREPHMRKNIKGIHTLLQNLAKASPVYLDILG
Test [4] concerns the target T2, human TrkB on CHO cells (hTrkB-CHO …). The test can be described thus: cell-based or functional assay. The source holds these as a separate data set.
A further test concerns the target T3, TrkA (Homo sapiens (Human), UniProt P04629 33-423).
T3 construct: also called Tyrosine Receptor A
Nature of the test: ELISA on coated TrkA, antibody at 10 nM, 1 nM and 0.1 nM. As to the method: (§1) TrkB agonist antibodies can bind to TrkB specifically but not bind to TrkA, […], TrkC or P75 in ELISA assay. Data of exemplary antibodies TrkB-agoAb104, TrkB-agoAb202, TrkB-agoAb203, TrkB-agoAb303, TrkB-agoAb1104 and TrkB-agoAb2908 are shown in FIG. 1A-1F. 50 μL of […] protein was coated on each well of the plate, and 50 μL of 10 nM, 1 nM or 0.1 nM antibody was added to perform ELISA assay.

The next test deals with T4, P75 (Homo sapiens (Human), UniProt P08138 29-250).
T4 construct: also called P75 neurotrophin receptor; P75NTR
T4 sequence: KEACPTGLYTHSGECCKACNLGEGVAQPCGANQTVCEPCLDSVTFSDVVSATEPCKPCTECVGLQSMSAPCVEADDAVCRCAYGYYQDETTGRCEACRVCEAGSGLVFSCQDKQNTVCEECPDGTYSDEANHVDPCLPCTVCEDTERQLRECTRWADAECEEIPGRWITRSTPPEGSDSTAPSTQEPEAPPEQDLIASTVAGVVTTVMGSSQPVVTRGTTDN
The test can be described thus: ELISA on coated P75, antibody at 10 nM, 1 nM and 0.1 nM. As for the experimental part: as §1

Test [5] addresses T2, human TrkB on CHO cells (hTrkB-CHO …). The test can be described thus: cell-based or functional assay. This is another data set of the same source.
In test [6] the target is T5, TrkB full length (FL, WT) conjugated with GFP, expressed in 293T cells (UniProt Q16620 32-822).
T5 construct: whole, on cells; The protein stood in cell lysate, not on whole cells; the numbering of the truncation (366-822) fits human TrkB; not shown: GFP
T5 sequence (Q16620 32-822): as the sequence (Q16620 32-822) above
Nature of the test: immunoprecipitation of GFP-tagged full-length and truncated TrkB from 293T lysates; binding domain. As for the experimental part: Cell were washed by cold PBS for 3 times and were lysed in buffer containing 50 mM Tris-HCl (pH 8.0), 250 mM NaCl, 1% NP-40, 0.5% deoxycholate, 0.1% SDS, and protease inhibitors (4693132001, Roche) (Roche Diagnostics) for 20 min on ice. After centrifugation to remove insoluble material, the proteins in lysate incubated with target protein over night at 4° C. 20 μl Protein A beads (sc-2003, Santacruz) were added to the protein mixture. After these mixture incubated for 4-5 h at 4° C., we washed beads for 3 times with lysis buffer. Then the supernatant was removed and 20 μl loading buffer was added to the deposit beads. The beads coupled proteins were denatured and uncoupled by 95° C. heat for 10 min.
Five extracellular domain truncated TrkB constructs were designed as shown in FIG. 2A and transfected to 293T cell for expression respectively. The lysate were collected. Immunoprecipitation was used to test the antibodies that cannot bind to truncated TrkB conjugated with GFP (see FIG. 2B). […] The others such as TrkB-agoAb418 antibody may bind to D5 domain. Δ1 lacks D1 domain (represented by Cys 1), Δ2 lacks D1 and D2 (represented by LAM) domains, Δ3 lacks D1-D3 (represented by Cys 2) domains, Δ4 lacks D1-D4 (represented by Ig1) domains, and Δ5 lacks D1-D5 (represented by Ig2) domains. “TM” represents transmembrane domain, “C” represents control (blank, empty vector). FL represents full length gene (WT).

T3 sequence (P04629 33-423 limits assumed): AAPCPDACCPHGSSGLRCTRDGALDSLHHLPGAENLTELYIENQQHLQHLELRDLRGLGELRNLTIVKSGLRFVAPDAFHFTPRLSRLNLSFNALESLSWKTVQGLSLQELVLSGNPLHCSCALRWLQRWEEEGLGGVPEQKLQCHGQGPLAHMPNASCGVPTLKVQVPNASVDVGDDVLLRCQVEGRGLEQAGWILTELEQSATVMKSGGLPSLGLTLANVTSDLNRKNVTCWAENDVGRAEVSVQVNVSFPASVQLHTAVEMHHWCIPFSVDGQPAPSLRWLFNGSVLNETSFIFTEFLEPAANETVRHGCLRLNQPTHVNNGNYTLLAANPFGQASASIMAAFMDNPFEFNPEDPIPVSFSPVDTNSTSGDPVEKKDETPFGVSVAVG
T1 sequence (Q16620 30-430 limits assumed): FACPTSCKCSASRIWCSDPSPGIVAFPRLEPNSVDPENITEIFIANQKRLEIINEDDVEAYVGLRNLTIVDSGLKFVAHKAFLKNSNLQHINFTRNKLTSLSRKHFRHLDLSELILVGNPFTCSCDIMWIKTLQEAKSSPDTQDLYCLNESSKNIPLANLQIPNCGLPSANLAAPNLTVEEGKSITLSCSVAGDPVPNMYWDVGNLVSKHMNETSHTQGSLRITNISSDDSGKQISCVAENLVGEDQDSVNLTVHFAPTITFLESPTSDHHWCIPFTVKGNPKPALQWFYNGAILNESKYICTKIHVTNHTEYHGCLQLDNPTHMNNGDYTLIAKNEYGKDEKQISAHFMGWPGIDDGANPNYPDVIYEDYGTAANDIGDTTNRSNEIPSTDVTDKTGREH
human TrkB on CHO cells (hTrkB-CHO cells) (human), sequence (Q16620 32-822): as the sequence (Q16620 32-822) above

For the molecule “brain-derived neurotrophic factor (BDNF) (from UniProt P23560 129-247) (ligand)”, the EC50 of TrkB Try515 phosphorylation, Alphalisa, hTrkB-CHO cells treated 30 min in test [1] was determined as 1.39 nM.

B1: TrkB-agoAb203 (antibody, V domains shown)
VH: DVKLVESGGGLVKPGGSLKLSCAASGFTFSSYTMSWVRQTPEKRLEWVATISSGGDYTYFPDSVKGRFTMSRDNAKNALYLQMSSLKSEDTAMYYCTRESGRGDFDYWGQGTTLTVSS
VL: DVLMTQTPLSLPVSLGDQASISCRSSQNIVHSNGNTYLEWYLQKPGQSPNLLIYNVSNRFSGVPDRFSGSGSGTDFTLKISRVEAEDLGVYYCFQGSHFPWTFGGGTKLEIT
Take B1: the Kd in test [2] worked out at 0.0529 nM. Further, the “EC50 of TrkB Try515 phosphorylation, Alphalisa, hTrkB-CHO cells treated 30 min” value in test [3] came out at 2.84 nM. Further, the “in vitro half life (T1/2) from the time course of TrkB phosphorylation, Alphalisa, cells treated at EC50” value in test [4] was > 24 h.

B2: TrkB-agoAb303 (antibody, V domains shown)
VH: DVKLVESGGGLVKPGGSLKLSCAASGFTFSSYTMSWVRQTPEKRLEWVATISSGGDYTYFPDSVKGRFTMSRDNAKNALYLQMSSLKSEDTAMYYCTRESGRGDFDYWGQGTTLTVSS
VL: DVLMTQTPLSLPVSLGDQASISCRSSQNIVHSNGNTYLEWYLQKPGQSPNLLIYNVSNRFSGVPDRFSGSGSGTDFTLKISRVEAEDLGVYYCFQGSHFPWTFGGGTKLEIT
notes: Mouse monoclonal antibody
As for B2, the Kd in test [2] came out at 4.02 nM. Further, in test [3], the “EC50 of TrkB Try515 phosphorylation, Alphalisa, hTrkB-CHO cells treated 30 min” value worked out at 1.33 nM. Further, the binding result with TrkA and in the test with P75 was “no binding (tested: 10 nM)” each time. Moreover, the “in vitro half life (T1/2) from the time course of TrkB phosphorylation, Alphalisa, cells treated at EC50” value in test [4] was > 24 h. For the same molecule, the “EC50 (read off the curve)” value in test [5] is ~1 nM.

B3: TrkB-agoAbB901 (antibody, IgG2, V domains shown)
VH: EVKLVESGGGLVQPGGSLKLSCAASGFDFSRYWMSWVRQAPGKGLEWIGEINPDGSTINYTPSLKDKFIISRDNAKNTLYLQMSKVRSEDTALYYCARGNYYGSSLAWFAYWGQGTLVTVSA
VL: DIQMTQSPASQSASLGESVTITCLASQTIGTLLAWYQQKPGKSPQLLIYAATTLADGVPSRFRGSGSGTKFSFKISSLQAEDFVSYYCQQFYSTPYTFGGGTKLEIK
notes: also called TrkB-agoAb901
On to B3, for which the binding result in test [6] was “binds”.

B4: TrkB-agoAb6916 (antibody, V domains shown)
VH: QVQLQQSGTELMKPGASVKISCKAAGYTISSYWVEWVKQRPGHGLEWIGEILPGGGSTNYNEKFKGKATFTADISSNTAYMQLSNLTSEDSAVYYCASSDYWFAYWGQGTLVTVSA
VL: QIVLTQSPAIMSASPGEKVTMTCSASSSINYTHWFQQKPGTSPKRWIYDTSKLASGVPVRFSGSGSGTSYSLTISSMEAEDAATYYCHQRSSYPWTFGGGTKLEIK
notes: Mouse monoclonal antibody
As to B4, the binding result in test [6] is “binds”.

B5: TrkB-agoAb1104 (antibody, IgG1, V domains shown)
VH: QVQLQQSGAELARPGASVKLSCKASGYTFTRYWMQWVKQRPGQGLEWIGAIYPGDGDTRYTQKFKGKATLTADKSSSTAYMQLSSLASEDSAVYYCAGSGLGRAWFTYWGQGTLVTVSA
VL: DIQMTQSPASLSASVGETVTITCRSSENIYSYLAWYQQKQGKSPQLLVYNAKTLAEGVPSRFSGSGSGTQFSLKINSLQPEDFGSYYCQHHYGPPYTFGGGTKLEIK
In the case of B5, the binding result is on record as “no binding (tested: 10 nM)” in the test with TrkA, “no binding (tested: 10 nM)” with P75 and “binds” in test [6].

B6: TrkB-agoAb5702 (antibody, IgG1, V domains shown)
VH: DVQLVESGGGLVQPGGSRKLSCAASGFTFSSFGMHWVRQAPEKGLEWVAYITSGSNTIYYADTVKGRFTISRDNPKNTLFLQMTSLRSEDTALYYCARDGYFLDALDYWGQGTSVTVSS
VL: DVQITQSPSYLAASPGETITINCRASKSISKYLAWYQEKPGKTNKLLIYSGSTLQSGIPSRFSGSGSGTDFTLTISSLEPEDFAMYYCQQHNEFPLTFGAGTKLELK
Take B6: the binding result in test [6] is given as “binds”.

B7: TrkB-agoAb2908 (antibody, IgG1, V domains shown)
VH: QVQLQQSGPELVKPGASVKISCKASGYTFSSSWMNWVKQRPGQGLEWIGRIYPGDGHTNYNGKFKGKATLTADKSSSTAYMQLTSLTSVDSGVYFCARSGYGYGFDCWGQGTTLTVSS
VL: NIVLTQSPASLAVSLGQRATISCRASESVDNYGNSLMHWYQQKPGQPPKLLIYLASNLESGVPARFSGSGSRTDFTLTIDPVEADDAATYYCQQNNEDPPWTFGGGTKLEIKR
In the case of B7, the binding result in the test with TrkA and with P75 was “no binding (tested: 10 nM)” in each case.
